For one molecule, Kd results are on record in US20260250328A1 (published 2026).

Common to all, as to assay: SPR
In general terms: In SPR one partner is held on a chip, and binding of the other changes the refractive index at the surface.

The target in assay [1] is P2-4G.
The target in assay [2] is P2-3E-RBD (mammalian cell expression system).
Assay [3] addresses P2-5C-RBD (mammalian cell expression system).
For assay [4], the target named is P2-2C-RBD (mammalian cell expression system).
In assay [5] the target is P1-5B-RBD (mammalian cell expression system).
Assay [6] has as its target P2-3A-RBD (mammalian cell expression system).
The target of assay [7] is P2-2C-RBD (insect cell expression system).
Assay [8] has as its target P1-1G-RBD (insect cell expression system).
For assay [9], the target named is P1-5B-RBD (insect cell expression system).
Assay [10] concerns the target P2-3E-RBD (insect cell expression system).
Assay [11] deals with P2-3A-RBD (insect cell expression system).
Assay [12] addresses P2-3D-RBD (insect cell expression system).

B1: HEV-p239 (other)
chain: IALTLFNLADTLLGGLPTELISSAGGQLFYSRPVVSANGEPTVKLYTSVENAQQDKGIAIPHDIDLGESRVVIQDYDNQHEQDRPTPSPAPSRPFSVLRANDVLWLSLTAAEYDQSTYGSSTGPVYVSDSVTLVNVATGAQAVARSLDWTKVTLDGRPLSTIQQYSKTFFVLPLRGKLSFWEAGTTKAGYPYNYNTTASDQLLVENAAGHRVAISTYTTSLGAGPVSISAVAVLAPHSV
Consider B1, for which the Kd stood at 3.4 nM in assay [1]; 1.24 nM in assay [2]; 0.874 nM in assay [3]; 1.02 nM in assay [4]; 0.131 nM in assay [5]; 0.0364 nM in assay [6]. In addition, the Kd in assay [7] worked out at 3.71 nM; in assay [8], 3.57 nM; in assay [9], 1.13 nM; in assay [10] it was 1.41 nM; in [11], 0.655 nM; in assay [12], 1.8 nM.

The Kd is the free concentration of one partner at which half of the binding sites on the other are occupied at equilibrium, for simple one-to-one binding.
